Test results published in US7119185.

B1: Hunk (hormonally up-regulated, neu-tumor-associated kinase), murine, 714-amino-acid ~80-kDa polypeptide (protein)
chain: MPAAAGDGLLGEPAAPGGDGGAEDTTRPAAACEGSFLPAWVSGVSRERLRDFQHHKRVGNYLIGSRKLGEGSFAKVREGLHVLTGEKVAIKVIDKKRAKKDTYVTKNLRREGQIQQMIRHPNITQLLDILETENSYYLVMELCPGGNLMHKIYEKKRLDEAEARRYIRQLISAVEHLHRAGVVHRDLKIENLLLDEDNNIKLIDFGLSNCAGILGYSDPFSTQCGSPAYAAPELLARKKYGPKIDVWSIGVNMYAMLTGTLPFTVEPFSLRALYQKMVDKAMNPLPTQLSTGAVNFLRSLLEPDPVKRPNIQQALANRWLNENYTGKVPCNVTYPNRISLEDLSPSVVLHMTEKLGYKNSDVINTVLSNRACHILAIYFLLNKKLERYLSGKSDIQDSICYKTQLYQIEKCRATKEPYEASLDTWTRDFEFHAVQDKKPKEQEKRGDFLHRPFSKKLDKNLPSHKQPSPSLITQLQSTKALLKDRKASKSGFPDKDSFVCRNLFRKTSDSNCVASSSMEFIPVPPPRTPRIVKKLEPHQPGPGSASILPKEEPLLLDMVRSFESVDREDHIELLSPSHHYRILSSPVSLARRNSSERTLSQGLLSGSTSPLQTPLHSTLVSFAHEEKNSPPKEEGVCSPPPVPSNGLLQPLGSPNCVKSRGRFPMMGIGQMLRKRHQSLQPSSERSLDASMSPLQPIAPSSLSFDMADGVKGQC
For B1, the “in vitro kinase assay of Hunk immunoprecipitates with [gamma-32P]ATP” value (histone H1) was “Hunk immunoprecipitates were able to phosphorylate both histone H1 and MBP in vitro”, the “in vitro kinase assay of anti-Hunk (C-terminal antisera) immunoprecipitates from lactating mammary glands” value (histone H1) was “Hunk-associated kinase activity was substantially greater in immunoprecipitates prepared from transgenic when compared with wild type mammary glands” and the “in vitro kinase assay of Hunk immunoprecipitates with [gamma-32P]ATP” value (myelin basic protein) was “Hunk immunoprecipitates were able to phosphorylate both histone H1 and MBP in vitro”.
